Patent US20100267005A1

Biological target: H6GY-titin I28 protein
Assay: sedimentation equilibrium, 3 loading concentrations, ten fold molar excess of Ni2+; Ni(II)-mediated self-association (monomer-dimer)

- Kd: 200 µM
Substance: H6GY-titin I28 protein
